T1: human IGFR-like receptor (UPF0577 protein KIAA1324) (human, UniProt Q6UXG2 42-1013)
T1 construct: Endogenous protein in lysates of human MCF7 cells and human islet cells, seen as a band of ~130 kDa on Western blot; also called IGFR-I; IGF3R
T1 sequence: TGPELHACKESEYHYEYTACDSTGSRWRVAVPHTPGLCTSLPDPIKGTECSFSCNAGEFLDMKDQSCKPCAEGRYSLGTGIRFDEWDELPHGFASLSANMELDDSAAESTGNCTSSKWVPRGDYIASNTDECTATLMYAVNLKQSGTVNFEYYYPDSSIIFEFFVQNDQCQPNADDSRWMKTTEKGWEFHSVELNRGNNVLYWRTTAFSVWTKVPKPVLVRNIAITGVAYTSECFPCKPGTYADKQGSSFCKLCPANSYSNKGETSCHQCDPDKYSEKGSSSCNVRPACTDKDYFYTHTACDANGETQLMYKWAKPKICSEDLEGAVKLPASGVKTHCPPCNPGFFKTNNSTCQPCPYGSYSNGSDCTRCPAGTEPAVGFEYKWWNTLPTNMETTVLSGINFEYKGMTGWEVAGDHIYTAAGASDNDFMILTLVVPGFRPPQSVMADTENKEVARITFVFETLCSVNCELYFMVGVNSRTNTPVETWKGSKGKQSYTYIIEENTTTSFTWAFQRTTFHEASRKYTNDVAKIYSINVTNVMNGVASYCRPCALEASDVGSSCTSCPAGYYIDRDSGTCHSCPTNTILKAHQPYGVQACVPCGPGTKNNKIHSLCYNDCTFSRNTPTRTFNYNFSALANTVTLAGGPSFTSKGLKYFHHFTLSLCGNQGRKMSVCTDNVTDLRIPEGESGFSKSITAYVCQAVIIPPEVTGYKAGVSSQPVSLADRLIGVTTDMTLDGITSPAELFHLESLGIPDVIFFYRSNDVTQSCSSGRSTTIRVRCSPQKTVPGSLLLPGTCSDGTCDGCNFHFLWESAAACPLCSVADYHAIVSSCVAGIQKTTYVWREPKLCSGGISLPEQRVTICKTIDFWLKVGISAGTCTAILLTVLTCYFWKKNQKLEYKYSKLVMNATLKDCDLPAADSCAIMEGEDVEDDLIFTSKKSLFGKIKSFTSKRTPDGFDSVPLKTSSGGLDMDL


Molecular target: T1, human IGFR-like receptor (UPF0577 …)
Experiment: Western blot, MCF7 cell lysate (strong)
Text: FIG. 29: Detection of IGFR-like receptor in mouse Min6 insulinoma cells and human MCF7 breast cancer cells using antibody against the extracellular domain of IGFR-like receptor. Western blotting experiments show specific recognition of a protein band of ˜130 kDa in Min6 (weak) and MCF7 (strong) cell lysates by an antibody against the extracellular domain SEQ ID NO: 4 (EIG-B 1862: VHC: SEQ ID NO:31, VLC: SEQ ID NO:32; and 10D9: VHC: SEQ ID NO:33, VLC: SEQ ID NO:34) and SEQ ID NO: 6 (EIG-D 26D7: VHC: SEQ ID NO:35, VLC: SEQ ID NO:36). The EIG-B clones are monoclonal antibodies generated against the peptide SEQ ID NO: 4 in rat, whereas the EIG-D clone is a monoclonal antibody generated against the SEQ ID NO: 6 in mouse.
Cells and tissues were lysed in RIPA buffer (50 mM Tris pH7.5, 150 mM NaCl, 1 mM EDTA, 1% IGEPAL, 0.1% SDS, 0.1% Na deoxycholate) containing a cocktail of proteinase inhibitor (1:100, Sigma, P8340) and phosphatases inhibitors (1:100, Sigma Aldrich, #2 P0044 and #3 P5726) and the cell or tissue lysates were cleared by centrifugation at 13000 r.p.m. for 10-30 min. The proteins (10-20 μg) were resolved in 6.5-15% SDS-PAGE according to the protein size to be detected and transferred to a PVDF membrane. Primary antibodies were added to the membrane in 5% milk and incubated at 4° C. overnight. Protein bands were visualized on Hyperfilms™ (GE healthcare, 28906837) or Blaufilme™ CEA-RP (Ernst Christiansen GmbH, EC84A) by chemiluminescent detection (ECL, Millipore, WBKLS0500).

Row | binding result | Binder
1 | binds | EIG-B 18B2 (antibody, V domains shown, Rat monoclonal antibody from a hybridoma; Only the variable regions are tied to the clone by name; also called EIG-B 1862) VH: QVQLKESGPGLVQPSQTLSLTCTVSGFSLTSYHISWVRQPPGKGLEWIAAISSGGDTYYNSLLKSRLSISRDTSKSQVFLKMNRLQTEDTAFYFCNGESYWGQGTLVTVSS VL: DVVLTQSPATLSVTPGERISLSCRASENIDTYLHWFQQKPNESPRLLIKFASQSISGIPSRFSGSGSGRDFTLSINGVELEDLSIYYCQQGNILPYTFGAGTRLELKR
2 | binds | EIG-B 10D9 (antibody, V domains shown, Rat monoclonal antibody from a hybridoma; Only the variable regions are tied to the clone by name; The constant regions are not tied to the clone) VH: QVQLKESGPGLVQPSQTLSLTCTVSGFSLTSYHISWVRQPPGKGLEWIAAISSGGDTYYNSLLKSRLSISRDTSKSQVFLKMNRLQTEDTAFYFCNGESYWGQGTLVTVSS VL: DVVLTQSPATLSVTPGERISLSCRASENIDTYLHWFQQKPNESPRLLIKFASQSISGIPSRFSGSGSGTDFTLSINGVELEDLSIYYCQQGNILPYTFGAGTKLELKR
3 | binds | EIG-D 26D7 (antibody, V domains shown, Mouse monoclonal antibody from a hybridoma; Only the variable regions are tied to the clone by name; The constant regions are not tied to the clone) VH: QVQLQQPGADLVRPGSSVKLSCKASGYSFTSYWMDWVKQRPGQGLEWIGNIYPSDGETHYNQKFKDKATLTVDKSSSTAYMQLSSLTSEDSAVYYCARLYSEYGSWGQGTTLTVSS VL: DIVMTQSPSSLTVTTGEKVTMSCKSSQSLLNSGNQKNYLTWYQQRPGQPPKLLIYWASTRDSGVPDRFTGSGSGTDFTLTISSVQAADLAVYYCQNDYSYPLTFGAGTKLELKR

Source: patent publication US20230025525A1 (HELMHOLTZ ZENTRUM M NCHEN DEUTSCHES FORSCHUNGSZENTRUM F R …, published 2023)
